# Assays:
# [1] = target: T1, SARS-CoV-2 Spike receptor-binding domain (residues 330-541) (SARS-CoV-2, UniProt P0DTC2 330-541); assay: BLI
# [2] = target: T1, SARS-CoV-2 Spike receptor-binding …; assay: BLI; remark: listed apart in the source
Binder,koff [1],Kd [2]
"MR6 (synthetic nanobody, sybody) (VHH) VHH: QVQLVESGGGLVQAGGSLRLSCAASGFPVEDTWMEWYRQAPGKEREWVAAITSWGFKTYYADSVKGRFTISRDNAKNTVYLQMNSLKPEDTAVYYCNVKDEGDTSASYDYWGQGTQVTVSS",0.0072 s⁻¹,
"MR17 (synthetic nanobody, sybody) (VHH) VHH: QVQLVESGGGLVQAGGSLRLSCAASGFPVEVWRMEWYRQAPGKEREGVAAIESYGHGTRYADSVKGRFTISRDNAKNTVYLQMNSLKPEDTAVYYCNVKDDGQLAYHYDYWGQGTQVTVSA",0.0097 s⁻¹,83.7 nM
